A protein production outcome set (Wang et al. 2014)

Test: label from the status in PepcDB records

## MNDISVSADRHAIERGSFNGNAKEYFGIWIVNILLTIMTLGIYSAWAKVRRKRYFNGNTLLAGRAFGYHATGGQIFKGRLIAFAFIVFSQLVGLIHPFLVFAPTILLLIFLPWVITRSIRFNARVTSYRNVRFDFVGTAWGAFVSILLGSFVALLSIGILAPLASRWANRYIVSNLHYGDRRFSTDPKIGALYRAWIIPALLVVVGGVLAVFLLIFLAMVLVQAAGIGSRELATAPENYEIVTLFGLGQILINLLVAMLIYGFASTVYKAGVRNVVVSSTLLDGKHELHSDLHRGRYLWIVFSNLIVTIFTFGLMRPWAAVREAQYAVERMGISFKGDMGEVLSSMEATGAAVSAEYMDMEGFEFGF
  protein production: not failed

## MMNSRQRYKAFISYSHHDRKAAEWLHRSLESYRPPAGLRAGLGEASGNALKPIFRDRDELSAAADLSEAIRDALDRSDTLIILCSSHAATSRWVDKEVAHFLTLRGADHMISVIAPGAPEGLPLMELLPPALRAALPEGVEPLAVDLRQDADGRRLAKLKIAARLLGVSLDRLVQRDARRRLRLMTAVSGVALAITVGMGAMTVVTLKSRQIAREQRDETEALVAYMLGDLREQLEPVGRLDLLDGVSAKVLAYYAKAQSDQLDDKALAQRAKAQTLLGTIREQRGDLEGAQDAFAQAAATTHALVERSPNDGDRVFDEAQNVFWLAYMGWRRGEIAQAERGFKRYAELAQRLVVIDPNRADWRIEVAYAKNNLGTLLFEEGRAGEALASFRAAFSIFEAERLRAPTDKQRLMDSANARAWVADCLLLMAKPREAFTERKAAAELLAKGEAAFPADQRLAAKSVATQLALARLELDLGRVAEARSRSKAAMNRLRELAALDPTNTRWREYVLIGELDFIDFAIWSGQPVQARSLHAAALANLARTRKGQEGGSWRPDLDGRLARQAVVLALSVGDVATAKRAAKSLVEALETSKVDRETAFGRTDLLGLAQLVDGKPSAAIKALSPRRNALPPASLDVLARAYAAVGERETAARIVRDLKQEGYAHPGFVAFWRESPAGGPPQSGVLK
  protein production: failed

## MAQARCGGELLGLRAVLCVPPCPMPRLLPLTLLLLAAAAHAQSAAPLTIEQAMADPDWIGPSVDQAWWQWDGKQVQYLLKRAGSPVRDTYRQSTAGGTAERVADTARAGLDAANPSYDATRQRMLFARNGDIFLRDLRSGALTQLTRSNEIESRPQFASDGGAIWRAGNNWYHWRADGGTAQVAVVKAERDPDAAPKPDVLREHQLATLATLRRDKEQRDALRTQDDAWRRADATRAAAPVYLGDEVEIVDSALSPDGRHLLVVTQATNAEEGQAGKMPKYVTESGYEEFQEVRTRVGRNASVAHALWLVDVSAGTAKSLSFDPLPGIATDPLAALRKAAKRDALKGNRAVRVESNGDGSGPAVHWSDDGRNVAVEIRAVDNKDRWIASVDLDNAKLQPRHRLSDSAWINWDFNDFGWLPDNRTLWLLSEESGYSQLYTMEGNSKPRQRTRGKWEVSMPVPSADGSGMFFLCNQKWPGDYEVCKLDLRNDQLTEVTALNGVEGFSLSPNGQQLLVSYSGSYLPTQLAVVPATGGQATVLTDTRTPAFKAQPWIAPQYVQVPSKHGAGTVWGKYYGPTTPEPGKQYPIVMFVHGAGYLQNVSERYTPYFREQMFHNLLVQQGYIVLDLDYRASRGYGRDWRTAIYRNMGHTELEDYLDGLDWLVATKQGDRARAGIYGGSYGGFMTYMALFRSPGTFKAGAALRPVGDWMQYNHEYTSNILNTPELDPEAYKTSSPINYAEGLRDHLLIAHGMIDDNVFFKDSVDMTQKLMELHKDNWQLALYPLERHGFTRADSWLDEYKRILKLFNAQVKP
  protein production: failed

## MIYPDELAVITSKFELELSETDRNKVHENVSTVSGRDFFMSIFEGLKMKDKILEYWDFRSSDYHTEYAHCMDEEMDVWKSVFSEILLTDKKVRAVEVGTGPGILAISLAAMGHDVTGVDLSENMLEKAAANAREKGVNVLLMRGDAEDIPLKDGEYDFVLSKYLLWTLPQPDKFLGECCRLLKDGGIMMIIDGLWFHNPDGTEKKSSRYERFDELYGDVKPNLPFAKENTPERIADLAESHGFEDLTWRFLDDYDAFLERNDPSGHAAAYIKPPHMILAKKKVRNS
  protein production: failed

## PRMIVFGAIDFASALARAGKFLGHHVTVCDARPVFATPARFPDADEVVVEWPHEYLARTAVDARTVLCVLTHDAKFDIPLLRLALRLPVAYVGAMGSRRTHLDRAARLREAGV
  protein production: failed

## MSYGLIIVLMIILGIGLWHTKKYHRAVVNQVAHVWITKNAFEHTALGMAIVSPDCRFLKVNRAYGEITGYTRPELLKMAVKELTHPEDQEKDTPYLQEVFAGNIHSFTTVKRYIHKNGSTIWVRSTISAVRTERGNLKYFVLEHHHHHH
  protein production: failed

## MQDRMLRRVFILAGIALLLWVLYLLKPVVIPFVGAFLIAYLFSPLVEKLSKIGLPRWLSISIVFIGIGVLLTWAMWYVVPLVWQQLMYARDSIPSGIHWVNATFLPWVSHTFNVERMEIDTDQISTVVMEYIQTNYSADSIQTMALRLAQSGLNFIQIGGTIVLIPIISFYFLLDWDRMLNSLRRLIPRPYEESTLRIVYECHSVLGAFVKGQFLVMLLLGIVYAVGLQLIGLEVGLIIGMVAGLASIIPYLGFAVGIIAAVIATVFQFGVDWMQLALVGVVFMIGQAVEGYILQPFLLGDKIGLSPVAVVFAVLAGAQLAGFLGMLIALPVAAVIVVLLRHLREAYEHTQMYAGTATVVSTGNGEHISIETENLDLDIEVKNPQDTDTSIDNDRK
  protein production: failed

## MDKRLQQDRIVDKMERFLSTANEEEKDVLSSIVDGLLAKQERRYATYLASLTQIESQEREDGRFEVRLPIGPLVNNPLNMVHGGITATLLDTAMGQMVNRQLPDGQSAVTSELNIHYVKPGMGTYLRAVASIVHQGKQRIVVEGKVYTDQGETVAMGTGSFFVLRSRGLEHHHHHH
  protein production: not failed

## MLVLYRASIRFKLRKNKNSFDSSNYFYGGNNICIINTKWGKHSGIGGYAEIIDTLVGNFTNISSWAKIGIRDHIHTNFLICDFVYKDNDHIMPPGISSFEDYWVKIGNDVWVGTNVTILRGVEVGDGAVIAAGSVVTKSIPPYAIVGGNPAKFIKWRFPFEVREKLLEIKWWDWDDDLIKEKKDYLQNLVGFDMDKYKIEYRKRKEDLFYLEHHHHHH
  protein production: not failed

## LAQEKNYDLPEGVMVYVIEGPFFFGAVETFQSALANTHTDPKVLIIRMRWVPFIDVTGLQAMEEIILNLQKRGVRVLLSEANPLVDAKLRKMGIVQLIGEQNYYKEFSQALDVCRINDSDRKSQPPFEVAKPLASVTQ
  protein production: not failed

## MDKNEIGLNAGKVWQLLSNNDKWSYGNLKKKSGLKDKDLGAALGWLAREDKIEFEQEEEELYVYLCVNVYIGLEHHHHHH
  protein production: failed

## MDYSIADCLAANQYTTACCIVQSWTRGEVLLSSYQRVALFIFFDSIEKDLVTHIRSLAGLVTTGFLSAQERDKAAQRAEKSDEPGTVAKDDFELLYQLDLGDKIAIAQRLKQHFGDAFRKHFSAKAASLQAAVPVRNSVMHGRPLTVEEHATAFALANDLVKSNGFWPVLHKALVDYNTDPEAITRRAVSFLEHPSEGGIFHNLPLPDYDDTGFVPRPQLEQELKKKILSRHPVVTVLGDGGNGKTALTVQALYSLVNSGDHDFDAIVWVSAKSSKLTVGEIQRIEHAITTSMGLFEEVVGIFEEDKSNPMSRVRQLLENNKILLAIDNLETVLDDTIRDFVSDIPGQSKVVLTSRIPVGGDLTVEVKPLTDNEGEIYLRALIKSYSIKTLSSLRQDELRYFASRLERRPLLLKWFCMGVIAGLPASKIVSNPEMALRFCLENVFDALSPDATMTLSLMSILPRAVSLGVLHYVSSTDIRKLEAGVAELLKFSILETENQSGYELNYRIKPFARAYVARILRLTAEAQEAVIRKFRGLSFAYQAERGAEGQEKYNFRNFTVRSISEALAAGKLREAVKLAYNDEFEAANAIIDTLKVSNHDYFEVFRTDAFIRFRQHDFAGATDAYRSALELSPETPQLYFFFGGFLLRGYGDCPAAIAQFEEALKRDPESTDVKRELARAKMFDYDFEGAMKILSLERTKPLSNMRTQLIFADLQTQNFQRMITHKSAVGIDADLEAPCSAFADFLVTLDPRIVDSKMTEHLRKARSSIVQALHTRSVRAGARVVALLDKLIGELEASRDDTTDHCASASGLLGTLKEKGRKPNFGFLVDRSNREYFVARAMVSDLVWEGLEGGKIASFEVELDNQGRPRATNVYLI
  protein production: failed

## MRKILEKVRRNRTYSFGKDLYDRTMRDDVAGLAAQLAYFFLLAIFPGLVFLITLLGFIDLQTESVLNLLEPYVPEDAMSLIEVNVDKVVNEQNGGLLSFGLLSMLWFASNGVNAVMNAFNRAYDVTETRSFIKTRALSIVFTLAIIFMIVFALIVPVFGQVIGAAVFKAIGLSDSFSYVWSITRLVASFFVLFALFSFLYTFAPDRKLKRREVISGATFATVGWIVVSYSFAYYVDKFANYANTYGGLGGIIILMLWFYLTGWVILLGGEINGLLHHYRTGDNNSRNEK
  protein production: failed

## MYINHAAEMLLCNSSVVVRCRATRGVSESLARPGGVTMHKRLTEETHHSAGSPEQPEIAGLHRELAEARQALETLYAALDNVDAGLLILNEELRAVYSNPVLHVMFRANSAEEIRQNRPLYAEMLAASAQAVAVNLEDYVSRRLAWVQSGDPKPMDLAMTDGTALRCHLAVLPGGGRMLIYSDVTDIVRNAEELERLATTDGMTGVYNRRHFLTLADREWSRARRYERPMSFLMIDIDYFKAINDGFGHQVGDEMIVHLARLARDCKRDCDVLARLGGEEFALLLPETDLAQAEVVAERLRREVAGNALVVASHAIPATVSIGVATALPGMKDVSDLMKAADQALYDAKHAGRNRVICRACHDPAPTLVPALTPRCEAATMR
  protein production: failed

## MNYKELLEFNDYAMDLTIRMAHHSTAIENNPLSLAETISILTTEYIPREMPQRAFFEVKNYQNMLFFLLENLNKGQSVDSFFIRELHGILMNFLLPNKGAFKTTDNTILGASFETTPIFKCLWL
  protein production: failed

## FDFKAGEEVLARWTDCRYYPAKIEAINKEGTFTVQFYDGVIRCLKRMHIKAMPEDAKGQDWIALVKA
  protein production: not failed

## MSSEAVDATTLVIIPTYNELENLPLIVDRVRTATPDVHVLIVDDNSPDGTGERADKLAADDDHIFVLHREGKGGLCAAYMAGFQWGLERDYQVLCEMDADGSHAPEQLHLLLAEITNGADLVIGSRYVPGGRVVNWPKNRWLLSKGGNVYISVALGAGLTDMTAGYRAFRREVLEALPLDELSNAGYIFQVEIAYRAVEAGFDVREVPITFTEREIGESKLDGSFVKDSLLEVTKWGLKHRGGQAKELSKEMVGLLNYEWKHFKKRNTWLLEHHHHHH
  protein production: failed

## MEKKYIMFIIAMAISFLTTPIVRKFAKHIKAIDIPKDKRRVHKKPIPKIGGLAIYLAFVLVLVLKKGHLEKAEMGIIFGGGIIVLGGFIDDLKCLRPLYKVLFQLLGAFVLIGFGLRISMVTNPLSNSFSYIHINNFIGIAITIIWIIGVTNAFNLIDGLDGLSAGVGFISSVTIAIVAFLNGPTRSEAEILSVILAGSILGFLPYNFNPASIFMGDTGAQFLGFALAAISIQGAIKSASAVVLAVPILVLGLPIYDTIFAIIRRKINGKPITQADRGHLHHRLLDMGLSQKQAVLIMYFISAIMGLVAVIAMQLTNTKAYVIFAGAVICIVGLAWKFGLFKHK
  protein production: failed

## MKIIGFACQWCAYQAADLAGSLKMKYPESIRLLRVPCSGRVNAEFILKALLSGADGVFVAGCPISECHYRSGNRIAKTKVALLKRLLPEFGLESGRVEFLQVSSADARKFVEFAKEFDERIRKLG
  protein production: failed

## MVWAPLGPPRTDCLTLLHTPSKDSPKMSLEWLVAWSWSLDGLRDCIATGIQSVRDCDTTAVITVACLLVLFVWYCYHVGREQPRPYVSVNSLMQAADANGLQNGYVYCQSPECVRCTHNEGLNQKLYHNLQEYAKRYSWSGMGRIHKGIREQGRYLNSRPSIQKPEVFFLPDLPTTPYFSRDAQKHDVEVLERNFQTILCEFETLYKAFSNCSLPQGWKMNSTPSGEWFTFYLVNQGVCVPRNCRKCPRTYRLLGSLRTCIGNNVFGNACISVLSPGTVITEHYGPTNIRIRCHLGLKTPNGCELVVGGEPQCWAEGRCLLFDDSFLHAAFHEGSAEDGPRVVFMVDLWHPNVAAAERQALDFIFAPGR
  protein production: failed
